From publication PMC9637154
Like-named read-outs stand apart in the source and are kept apart here.

What was measured:
[1] = glycan lost
[2] = cell-surface biotinylation, anti-hACE2 western blot; details: glycan lost; control: full-length hACE2 wt
[3] = focus reduction neutralization test, Vero E6 cells; details: glycan lost; control: shACE2-wt

Row | Substance | other: virus entry into hACE2-expressing cells [1] | other: virus entry into hACE2-expressing cells, fold_change [1] | expression_or_secretion [2] | other: decoy neutralising activity of shACE2, other: FRNT50 [3] | other: decoy neutralising activity of shACE2, other: FRNT50 [1]
1 | angiotensin-converting enzyme 2 (hACE2): N90S/N322S | increases | increases | – | – | –
2 | angiotensin-converting enzyme 2 (hACE2): N322S | increases | – | – | – | –
3 | angiotensin-converting enzyme 2 (hACE2): N90A | increases | increases | no change | increases | –
4 | angiotensin-converting enzyme 2 (hACE2): N90S | increases | – | – | – | –
5 | angiotensin-converting enzyme 2 (hACE2): N322A | increases | increases | no change | – | –
6 | angiotensin-converting enzyme 2 (hACE2): N53A | decreases | decreases | no change | – | –
7 | angiotensin-converting enzyme 2 (hACE2): N53A/N90A/N322A | increases | increases | no change | increases | –
8 | angiotensin-converting enzyme 2 (hACE2): N90A/N322A | increases | increases | no change | increases | increases
